The text below walks through data of US20240156870A1 (NATIONAL RESEARCH COUNCIL OF CANADA, published 2024).

Assay [1] addresses T1, human EGFR, native, on the cell surface (human, UniProt P00533 25-1210).
T1 construct: MCF7 is EGFR-low and serves as low-expression control; also called native cell-surface EGFR
As to the kind of experiment: Mirrorball microplate cytometry, adherent MDA-MB-468 cells.

For assay [2], the target named is recombinant 6xHis-tagged human EGFR ectodomain (human) (UniProt P00533). Kind of assay: SPR multi-cycle, VHH over amine-coupled EGFR ectodomain.
In assay [3] the target is recombinant human EGFRvIII ectodomain (human) (UniProt P00533). As to the kind of experiment: SPR multi-cycle, VHH over amine-coupled EGFRvIII ectodomain.
For assay [4], the target named is T2, human EGFR-Fc fusion protein (human, UniProt P00533 25-645).
T2 construct: Bought; not shown: Fc part of the bought fusion
Kind of assay: SPR single-cycle, VHH over amine-coupled human EGFR-Fc.

In assay [5] the target is T2, human EGFR-Fc fusion protein. Kind of assay: SPR, VHH over human EGFR-Fc.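 Also: Single-cycle kinetics on Biacore T200 at 25 °C in HBS-EP, monomeric VHHs at 0.6–50 nM flowed over immobilized EGFR, 180 s association, 600 s dissociation, ethanolamine-blocked reference cell.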
Description: In the second SPR experiment, single-cycle kinetic analyses were performed on a Biacore™ T200 instrument (GE Healthcare) at 25° C. in HBS-EP buffer. […] An ethanolamine-blocked flow cell served as the reference. Monomeric VHHs at concentrations ranging from 0.6 to 50 nM were injected over the EGFR surfaces in HBS-EP buffer at a flow rate of 40 μL/min. The contact time was 180 s and the dissociation time was 600 s. The EGFR surfaces were regenerated using a 10 s pulse of 10 mM glycine, pH 1.5.
For assay [6], the target named is T1, human EGFR, native, on the cell surface. Kind of assay: Mirrorball microplate cytometry, serial dilution, AF488 anti-human Fc; the cell line is not named in the legend of FIG. 5D (paragraph 463 treats it with the MDA-MB-468 assay of FIG. 5B).
Assay [7] has as its target T3, recombinant 6xHis-tagged human EGFR ectodomain (human, UniProt P00533 25-645).
T3 construct: extracellular domain; Bought; also called recombinant human EGFR; EGFR extracellular domain; not shown: 6xHis tag
As to the kind of experiment: SPR multi-cycle, VHH over amine-coupled EGFR ectodomain.

In assay [8] the target is T3, recombinant 6xHis-tagged human EGFR …. Kind of assay: SPR (value of Table 2 repeated in Table 6).
Description: In the first SPR experiment, multi-cycle kinetic analyses were performed on a Biacore™ 3000 instrument (GE Healthcare) at 25° C. in HBS-EP buffer [10 mM HEPES, pH 7.4, containing 150 mM NaCl, 3 mM EDTA and 0.005% (w/v) surfactant P20]. […] An ethanolamine-blocked flow cell served as the reference. Monomeric VHHs at concentrations ranging from 0.1 to 100 nM were injected over the EGFR and EGFRvIII surfaces in HBS-EP buffer at a flow rate of 20 μL/min. […] Contact times were 180-300 s and dissociation times were 300-600 s.

Changes are numbered by the printed parent chain.

The EC50 is the concentration needed to bring the measured effect to its halfway point. A lower EC50 goes with greater potency. In assay [1], EG2-Fc (Fc fusion) showed an EC50 of 279 nM. In other words, the sub-micromolar range.
Usually Kd stands for the free concentration of one partner at which half of the binding sites on the other are occupied at equilibrium, for simple one-to-one binding. One may read the kon as the second-order rate constant of association. Take EG2 VHH: the Kd was found to be 19.1 nM in assay [2], 14.6 nM in assay [3] and 11.1 nM in assay [4]. In addition, the kon in assay [3] is 1.2e+06 M⁻¹ s⁻¹; in assay [4], 850000 M⁻¹ s⁻¹.

B1: NRC-sdAb033-Fc (Fc fusion)
chain: QVQLVESGGGLVQPGGSLRLSCAASESIDSIYVMQWYRQAPEKPRDVVATLTPGGGSYYPEAVLGRFTISRDDAKNTVYLQMNSLKPEDTAVYYCNAFHRLRGTHYWGQGTQVTVSS
notes: Bivalent VHH-human IgG1 Fc fusion from HEK293-6E cells; not shown: human IgG1 Fc
With B1, the EC50 in assay [1] worked out at 49 nM.

B2: NRC-sdAb028-H1 (VHH)
VHH: QVQLVESGGGVVQPGRSLRLSCTVSGSFFSRDAMGWHRQAPGKGLEMVAGISSGGLSNHAESVKGRFTISRDNSKNTLYLQMNSLRAEDTAVYYCSIYEDGVWTSWGQGTLVTVSS
notes: Humanized variant H1 of NRC-sdAb028
The koff is the first-order rate constant of dissociation. Consider B2, for which, in assay [5], binding was characterised by a dissociation constant (Kd) of 6.2 nM, the koff amounted to 0.00058 s⁻¹ and the kon was 93000 M⁻¹ s⁻¹.

B3: NRC-sdAb028-Fc (Fc fusion)
chain: B2 VHH with Q1E, V11L, R16G, G44Q, L45R, L78V, S84N, R86K, A87P, L111Q
notes: as for B1
In the case of B3, the midpoint of the response in assay [1], the EC50, lay at 86 nM. That is a double-digit nanomolar value.

B4: NRC-sdAb032/NRC-sdAb028-Fc (Fc fusion)
chain 1: QVKLEESGGGLVQPGGSLRLSCSASGSISSISVMGWYRQAPGKQRELVARITSGGISNYVDSVKGRFTISGDSAKNIVYLQMNSLKPEDTAVYYCYMYVHVGYWVDYWGQGTQVTVSS
chain 2: B2 VHH with Q1E, V11L, R16G, G44Q, L45R, L78V, S84N, R86K, A87P, L111Q
notes: Member of the group m26; also called NRC-sdAb032/028-Fc; biparatopic heterodimeric VHH/VHH-Fc
In the case of B4, it took 2.1 nM to reach a half-maximal effect in assay [6] (EC50).

B5: NRC-sdAb023 (VHH)
VHH: QVQLVESGGGLVQPGGSLRLSCTASGIIFSRNGVSWYRQAPGKEREFVAVITLSGTTTYKDSVKGRFTISRDNTRNTGYLQMNNLKPEDTAVYYCNLVPPTSYWGQGTQVTVSS
notes: Monomeric llama VHH; also called EGFR3; not shown: C-terminal c-Myc and 6xHis tags
With B5, the Kd in assay [3] was 19.4 nM. Besides, in assay [7], the Kd is 12.6 nM, the dissociation rate constant (koff) came to 0.0057 s⁻¹ and the kon worked out at 460000 M⁻¹ s⁻¹.

B6: NRC-sdAb026 (VHH)
VHH: QVQLVESGGALVQPGGSLRLSCSASGVIFGINTLAWHRQAPGKEREWVALISNAGSTKYAGSVKGRFTISRDNDKNTVYLQMDSLKPEDTAVYYCNYVPPSPAWGQGTQVTVSS
notes: Monomeric llama VHH; also called EGFR6; not shown: C-terminal c-Myc and 6xHis tags
B6: in assay [3], the Kd was 25 nM, the koff amounted to 0.0068 s⁻¹ and the kon was found to be 270000 M⁻¹ s⁻¹. For the same molecule, in assay [7], the Kd is 15.4 nM, the koff came out at 0.0056 s⁻¹ and the kon came to 360000 M⁻¹ s⁻¹.

B7: NRC-sdAb032-Fc (Fc fusion)
chain: B4 chain 1
notes: Bivalent VHH-human IgG1 Fc fusion from HEK293-6E cells; also called homodimeric NRC-sdAb032-Fc; not shown: human IgG1 Fc
For the molecule B7, the EC50 is 0.5 nM in assay [1] and 0.9 nM in assay [6].

B8: NRC-sdAb032/NRC-sdAb033-Fc (Fc fusion)
chain 1: B4 chain 1
chain 2: B1 chain
notes: Member of the group m26; also called NRC-sdAb032/033-Fc; biparatopic heterodimeric VHH/VHH-Fc
Molecule B8 had an EC50 in assay [6] of 1.8 nM. This lies in the single-digit nanomolar range.

B9: NRC-sdAb033-H2 (VHH)
VHH: QVQLVESGGGVVQPGRSLRLSCAASESIDSIYVMQWYRQAPGKGLEVVATLTPGGGSYYPDSVKGRFTISRDNSKNTLYLQMNSLRAEDTAVYYCNAFHRLRGTHYWGQGTLVTVSS
notes: Humanized variant H2 of NRC-sdAb033
Regarding B9, in assay [5], the Kd was 1.4 nM, the koff was determined as 0.00026 s⁻¹ and the kon is 200000 M⁻¹ s⁻¹.

B10: NRC-sdAb033-H1 (VHH)
VHH: B9 VHH with G42E, E46D, D61E
notes: Humanized variant H1 of NRC-sdAb033
In assay [5], B10 registered a Kd of 1.7 nM, a koff of 0.00022 s⁻¹ and a kon of 130000 M⁻¹ s⁻¹.

B11: NRC-sdAb021 (VHH)
VHH: QVQLVESGGGLVQPGGSLRLSCSVSLSDFGSKHLAWHRQAPGKEREWVALIFSSGATNYANSVKGRFTISRDNSKNTVYLQMNSLKPEDTAVYYCNLVPPSPAWGQGTQVTVSS
notes: Monomeric llama VHH purified from E. coli periplasm; also called EGFR1; not shown: C-terminal c-Myc and 6xHis tags
Turning to B11, the Kd in assay [8] was 38.5 nM; in assay [3], 40.4 nM; in assay [7], 38.5 nM. Also, the koff in assay [3] worked out at 0.0098 s⁻¹; in assay [7] it was 0.012 s⁻¹. Further, the kon in assay [3] was found to be 240000 M⁻¹ s⁻¹; in assay [7] it was 310000 M⁻¹ s⁻¹.

B12: NRC-sdAb027 (VHH)
VHH: QVKLEESGGGLVQPGGSLKLSCAVSGFAFERNGVSWYRQAPGKQREFVAVISSGTTTYKDSVKGRFTISRDNTRNTAYLQMNNLKPEDTAVYYCNLIPPTPYWGQGTQVTVSS
notes: Monomeric llama VHH; also called EGFR7; not shown: C-terminal c-Myc and 6xHis tags
In the case of B12, the Kd in assay [8] was determined as 1.6 nM. In assay [3], the Kd came out at 2.3 nM, the off-rate constant (koff) was found to be 0.00086 s⁻¹ and the kon is 380000 M⁻¹ s⁻¹. Moreover, in assay [7], the Kd came out at 1.6 nM, the koff came out at 0.00079 s⁻¹ and the kon came to 510000 M⁻¹ s⁻¹.

B13: NRC-sdAb032/NRC-sdAb022-Fc (Fc fusion)
chain 1: B4 chain 1
chain 2: B12 VHH with K3Q, E5V, I97V
notes: Member of the group m26; also called NRC-sdAb032/022-Fc; biparatopic heterodimeric VHH/VHH-Fc
In turn, B13 returned an EC50 in assay [6] of 1.6 nM. In other words, the single-digit nanomolar range.

B14: NRC-sdAb022-Fc (Fc fusion)
chain: B12 VHH with K3Q, E5V, I97V
notes: as for B1
As for B14, the EC50 in assay [1] came to 67 nM.

B15: NRC-sdAb024 (VHH)
VHH: QVQLVESGGGLVQPGGSLRLSCAASGSSLYINAMTWYRQAPGEQREFVAIISRGGDTKYSDSVKGRFSISIDNAKNTVYLQMNSLKAEDTAVYYCNAVPPFPNWGQGTQVTVSS
notes: Monomeric llama VHH; also called EGFR4; not shown: C-terminal c-Myc and 6xHis tags
Consider B15, for which, in assay [3], the Kd turned out to be 4.9 nM, the koff amounted to 0.0009 s⁻¹ and the kon was 180000 M⁻¹ s⁻¹. Also, in assay [7], the Kd is 2.9 nM, the dissociation rate constant (koff) was determined as 0.00073 s⁻¹ and the kon stood at 250000 M⁻¹ s⁻¹.

B16: NRC-sdAb025 (VHH)
VHH: B15 VHH with Y30T, E43D, Q44E, I51V, S52Y, D56G, S60A
notes: Monomeric llama VHH; also called EGFR5; not shown: C-terminal c-Myc and 6xHis tags
B16: in assay [3], the Kd is 2.8 nM, the koff worked out at 0.00071 s⁻¹ and the kon was 260000 M⁻¹ s⁻¹. Also, in assay [7], the Kd was determined as 1.7 nM, the koff was found to be 0.00059 s⁻¹ and the kon was found to be 360000 M⁻¹ s⁻¹.

B17: NRC-sdAb032-H1 (VHH)
VHH: QVQLVESGGGLVQPGRSLRLSCSASGSISSISVMGWYRQAPGKGLELVARITSGGISNYVDSVKGRFTISRDSNSKNTLYLQMNSLRAEDTAVYYCYMYVHVGYWVDYWGQGTLVTVSS
notes: Humanized variant H1 of NRC-sdAb032
In assay [5], B17 displayed a Kd of 16.6 nM, a koff of 0.01 s⁻¹ and a kon of 620000 M⁻¹ s⁻¹.
